Values of other authors, collected in article PMC11899465.
Like-named read-outs stand apart in the source and are kept apart here.

What was measured:
CD137 (Homo sapiens) [1] = target: CD137 (Homo sapiens) (UniProt Q07011)
CD137 (Homo sapiens) [2] = target: CD137 (Homo sapiens) (UniProt Q07011); remark: listed apart in the source

Chain of CD137 (Homo sapiens) (Q07011 24-255): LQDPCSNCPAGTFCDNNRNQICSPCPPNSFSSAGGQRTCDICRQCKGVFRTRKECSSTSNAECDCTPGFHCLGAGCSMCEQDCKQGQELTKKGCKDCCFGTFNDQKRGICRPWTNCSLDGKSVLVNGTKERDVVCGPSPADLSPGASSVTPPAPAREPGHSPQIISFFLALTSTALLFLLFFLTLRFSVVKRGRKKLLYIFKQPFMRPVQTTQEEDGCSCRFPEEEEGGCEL
Chain of CD137L (monomer) (P41273 whole entry): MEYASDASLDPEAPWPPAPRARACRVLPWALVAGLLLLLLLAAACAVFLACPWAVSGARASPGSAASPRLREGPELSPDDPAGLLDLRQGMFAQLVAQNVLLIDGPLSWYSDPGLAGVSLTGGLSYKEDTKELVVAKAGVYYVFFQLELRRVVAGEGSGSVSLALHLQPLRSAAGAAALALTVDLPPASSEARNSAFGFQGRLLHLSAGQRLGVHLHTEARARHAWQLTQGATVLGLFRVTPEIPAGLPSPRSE
Chain of CD137L (homotrimer) (P41273 whole entry): as above

Substance: CD137L (homotrimer) (from UniProt P41273)
- Kd (CD137 (Homo sapiens) [1]): 1.2 nM

Substance: CD137L (monomer) (from UniProt P41273)
- Kd (CD137 (Homo sapiens) [2]): 55.2 nM
